The values that follow come from US20050241007.

This data set relates to Frog Prince transposase (consensus, FP) (Rana pipiens). The data set can be described thus: cell_activity. The conditions noted are these: G418-resistant colony increase in HeLa cells.
Chain of Frog Prince transposase (consensus, FP) (Rana pipiens) (chain, as listed by the source): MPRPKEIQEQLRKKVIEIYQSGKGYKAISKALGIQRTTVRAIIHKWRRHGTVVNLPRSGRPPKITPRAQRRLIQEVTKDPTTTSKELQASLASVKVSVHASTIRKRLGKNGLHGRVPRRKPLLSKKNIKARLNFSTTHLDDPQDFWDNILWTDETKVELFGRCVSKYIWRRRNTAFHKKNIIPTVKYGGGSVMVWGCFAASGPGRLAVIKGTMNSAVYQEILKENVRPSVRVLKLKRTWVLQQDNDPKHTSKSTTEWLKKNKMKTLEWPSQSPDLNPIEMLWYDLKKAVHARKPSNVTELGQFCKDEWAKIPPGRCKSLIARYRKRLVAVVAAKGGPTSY

For “CAGTGGTGTGAAAAAGTGTTTGCCCCCTTCCTCATTTCCTGTTCCTTTGCATGTTTGTCACACTTAAGTGTTTCGGAACATCAAACCAATTTAAACAATAGTCAAGGACAACACAAGTAAACACAAAATGCAATTTGTAAATGAAGGTGTTTATTATTAAAGGTGAAAAAAAATCCAAACCATCATGGCCCTGTGTGAAAAAGTGATTGCCCCCCTTGTTAAAACATACTATAACTGTGGTTGTCCACAC (double strand) [Frog Prince transposon inverted repeat (pFrogPrince-neo)]”, the activity (transposition) was determined as 17 fold.

For the substance Txr transposon (pTxr-neo), the activity (cross-mobilization) was 5 fold.
